{
  "source": "paper PMC3899043",
  "about": "“Expression Pattern and Biochemical Properties of Zebrafish N-Acetylglutamate Synthase” (PLoS ONE, 2014)",
  "key": {"zfNAGS-C": {"molecular_target": "T1, zfNAGS-C (Danio rerio, UniProt E7FCP8)", "T1 construct": "gene nags; conserved segment (AAK and NAT domains), targeting signal and variable segment removed; N-terminus at Gly73 of preprotein; N-terminal polyhistidine tag kept (pET15b); E. coli C41(DE3); predicted 52,752 Da", "T1 sequence (E7FCP8 73-527)": "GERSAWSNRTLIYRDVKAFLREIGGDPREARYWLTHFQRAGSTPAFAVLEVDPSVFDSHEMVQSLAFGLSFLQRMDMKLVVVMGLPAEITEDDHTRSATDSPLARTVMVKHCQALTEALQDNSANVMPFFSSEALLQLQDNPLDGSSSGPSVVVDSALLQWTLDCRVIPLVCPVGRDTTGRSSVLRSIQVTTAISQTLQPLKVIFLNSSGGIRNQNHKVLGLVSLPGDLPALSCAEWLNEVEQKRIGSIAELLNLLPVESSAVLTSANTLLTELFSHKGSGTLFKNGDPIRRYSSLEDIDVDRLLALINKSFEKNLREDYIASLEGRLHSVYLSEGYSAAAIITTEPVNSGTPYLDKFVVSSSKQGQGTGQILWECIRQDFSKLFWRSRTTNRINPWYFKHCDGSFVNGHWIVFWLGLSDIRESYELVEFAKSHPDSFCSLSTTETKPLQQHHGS", "assay": "thermofluor with SYPRO Orange", "format": "binding", "conditions": "L-arginine up to 10 mM; no substrates; pH 7.5 phosphate"}, "zfNAGS-M": {"molecular_target": "T2, zfNAGS-M (Danio rerio, UniProt E7FCP8)", "T2 construct": "gene nags; mature form, predicted mitochondrial targeting signal removed; N-terminus at Met47 of preprotein; N-terminal polyhistidine tag kept (pET15b); E. coli C41(DE3); predicted 55,498 Da; tetramer", "T2 sequence (E7FCP8 46-527)": "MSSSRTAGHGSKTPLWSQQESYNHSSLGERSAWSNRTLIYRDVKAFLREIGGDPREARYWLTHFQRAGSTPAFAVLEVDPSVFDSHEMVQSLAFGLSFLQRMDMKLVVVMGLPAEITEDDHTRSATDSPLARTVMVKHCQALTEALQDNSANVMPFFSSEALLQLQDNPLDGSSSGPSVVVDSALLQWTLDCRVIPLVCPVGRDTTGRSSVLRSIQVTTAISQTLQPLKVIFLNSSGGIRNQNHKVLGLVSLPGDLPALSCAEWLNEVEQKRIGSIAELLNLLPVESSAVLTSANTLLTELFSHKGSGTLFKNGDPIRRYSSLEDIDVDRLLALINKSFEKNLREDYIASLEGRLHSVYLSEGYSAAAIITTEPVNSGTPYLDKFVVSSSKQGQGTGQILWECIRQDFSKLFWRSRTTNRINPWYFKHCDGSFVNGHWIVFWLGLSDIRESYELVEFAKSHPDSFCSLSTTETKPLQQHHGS", "assay": "enzymatic activity assay, Michaelis-Menten fit", "format": "biochemical", "conditions": "no L-arginine", "source_text": "enzymatic activity assay, Michaelis-Menten fit on zfNAGS-M"}, "[1]": {"molecular_target": "mature zebrafish N-acetylglutamate synthase (zfNAGS-M) (zebrafish (Danio rerio)) (UniProt E7FCP8)", "assay": "SEC; analytical gel chromatography, Superdex 200 HR 10/30, room temperature, 50 mM potassium phosphate pH 7.5, 300 mM KCl, 20% glycerol, 10 mM beta-mercaptoethanol, 0.006% Triton X-100, no L-arginine; 100 ul loaded at 0.5-1.3 mg/ml (zfNAGS-M) or 0.5-2.0 mg/ml (zfNAGS-C)"}, "[2]": {"substrate": "CC(=O)SCCNC(=O)CCNC(=O)[C@H](O)C(C)(C)COP(=O)(O)OP(=O)(O)OC[C@H]1O[C@@H](n2cnc3c(N)ncnc32)[C@H](O)[C@@H]1OP(=O)(O)O", "assay": "enzymatic activity assay, Michaelis-Menten fit", "format": "biochemical, Danio rerio", "conditions": "15 mM L-glutamate; no L-arginine", "source_text": "(§1) enzymatic activity assay, Michaelis-Menten fit on zfNAGS-C"}, "[3]": {"substrate": "N[C@@H](CCC(=O)O)C(=O)O", "assay": "enzymatic activity assay, Michaelis-Menten fit", "format": "biochemical, Danio rerio", "conditions": "4 mM AcCoA; no L-arginine", "source_text": "as §1"}},
  "note": "Like-named read-outs stand apart in the source and are kept apart here.",
  "data": [
    {"molecule": "N=C(N)NCCC[C@H](N)C(=O)O", "note": "[L-arginine]", "values": [
      {"measurement": "thermofluor with SYPRO Orange", "setting": "zfNAGS-C", "value": "Addition of L-arginine to both zfNAGS-M and zfNAGS-C resulted in changes"}
    ]},
    {"molecule": "CC(=O)SCCNC(=O)CCNC(=O)[C@H](O)C(C)(C)COP(=O)(O)OP(=O)(O)OC[C@H]1O[C@@H](n2cnc3c(N)ncnc32)[C@H](O)[C@@H]1OP(=O)(O)O", "note": "[AcCoA]", "values": [
      {"measurement": "Km", "setting": "zfNAGS-M; 15 mM L-glutamate, read-out: AcCoA / Km ^app", "value": "220 ± 30", "unit": "µM"}
    ]},
    {"molecule": "mature zebrafish N-acetylglutamate synthase (zfNAGS-M) (from UniProt E7FCP8 47-527) (enzyme)", "values": [
      {"measurement": "stoichiometry N", "setting": "[1]", "value": 4}
    ]},
    {"molecule": "N[C@@H](CCC(=O)O)C(=O)O", "note": "[L-glutamate]", "values": [
      {"measurement": "Km", "setting": "zfNAGS-M; 4 mM AcCoA, read-out: Glutamate / Km ^app", "value": "1130 ± 130", "unit": "µM"}
    ]},
    {"molecule": "zfNAGS-C (Danio rerio) (protein, conserved segment (AAK and NAT domains), targeting signal and variable segment removed; N-terminus at Gly73 of preprotein; N-terminal polyhistidine tag kept (pET15b); E. coli C41(DE3); predicted 52,752 Da) GERSAWSNRTLIYRDVKAFLREIGGDPREARYWLTHFQRAGSTPAFAVLEVDPSVFDSHEMVQSLAFGLSFLQRMDMKLVVVMGLPAEITEDDHTRSATDSPLARTVMVKHCQALTEALQDNSANVMPFFSSEALLQLQDNPLDGSSSGPSVVVDSALLQWTLDCRVIPLVCPVGRDTTGRSSVLRSIQVTTAISQTLQPLKVIFLNSSGGIRNQNHKVLGLVSLPGDLPALSCAEWLNEVEQKRIGSIAELLNLLPVESSAVLTSANTLLTELFSHKGSGTLFKNGDPIRRYSSLEDIDVDRLLALINKSFEKNLREDYIASLEGRLHSVYLSEGYSAAAIITTEPVNSGTPYLDKFVVSSSKQGQGTGQILWECIRQDFSKLFWRSRTTNRINPWYFKHCDGSFVNGHWIVFWLGLSDIRESYELVEFAKSHPDSFCSLSTTETKPLQQHHGS", "values": [
      {"measurement": "Km", "setting": "[2]", "value": "230 ± 60", "unit": "µM"},
      {"measurement": "Vmax", "setting": "[2]", "value": 32.2, "unit": "µmol/min/mg"},
      {"measurement": "Km", "setting": "[3]", "value": "1120 ± 210", "unit": "µM"},
      {"measurement": "Vmax", "setting": "[3]", "value": 39.5, "unit": "µmol/min/mg"}
    ]}
  ]
}
